This data set deals with Escherichia coli TOP10. Nature of the data set: shrunken log2 fold change of peptide-encoding DNA abundance (4.5 h post-induction vs induction); higher = less antimicrobial activity (less host growth inhibition). The conditions noted are these: time post-induction: 4.5 h; library: site-saturation at positions 5, 18, 19, 20.

The record followed here is the supplement of paper PMC9112550, “Optimization of the antimicrobial peptide Bac7 by deep mutational scanning” (BMC Biology, 2022).
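Note: peptides expressed intracellularly from a pBAD plasmid library in pooled LB shake-flask culture, induced with 0.3% L-arabinose, DNA abundance read by NGS, three biological replicates, DESeq2 with apeglm shrinkage.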

In the case of RRIRRRPPRLPRPRPRPGHWPRP, the “shrunken log2 fold change” value was 0.0797.
With RRIRQRPPRLPRPRPRPCTEPRP, the “shrunken log2 fold change” value turned out to be 0.0363.
To RRIRGRPPRLPRPRPRPSYPPRP belongs -0.215; to RRIRKRPPRLPRPRPRPEKKPRP, -0.018; to RRIRQRPPRLPRPRPRPESEPRP, 0.219.
To RRIRGRPPRLPRPRPRPNAFPRP belongs 0.665.
As for RRIRERPPRLPRPRPRPANFPRP, the figure is -0.163; as for RRIRCRPPRLPRPRPRPADLPRP, -0.24.
As to RRIRQRPPRLPRPRPRPPGVPRP, the “shrunken log2 fold change” value worked out at 0.462.
To RRIRMRPPRLPRPRPRPWGDPRP belongs 0.0652; to RRIRVRPPRLPRPRPRPSLPPRP, -0.226; to RRIRPRPPRLPRPRPRPMVKPRP, -0.154.
As for RRIRERPPRLPRPRPRPANSPRP, the figure is -0.0581.
As for RRIRVRPPRLPRPRPRPFCMPRP, the figure is -0.537; as for RRIRRRPPRLPRPRPRPIWSPRP, -0.000832.
Consider RRIRCRPPRLPRPRPRPMLKPRP, for which the “shrunken log2 fold change” value is -0.141.
As for RRIRVRPPRLPRPRPRPWRPPRP, the figure is 0.328; as for RRIRDRPPRLPRPRPRPCQHPRP, -0.276; as for RRIRLRPPRLPRPRPRPYTAPRP, -0.863.
To RRIRGRPPRLPRPRPRPKEHPRP belongs 0.627.
Turning to RRIRYRPPRLPRPRPRPSKSPRP, the “shrunken log2 fold change” value is -0.257.
To RRIRMRPPRLPRPRPRPKNKPRP belongs 0.408; to RRIRQRPPRLPRPRPRPWQCPRP, -0.1.
For RRIRPRPPRLPRPRPRPHPMPRP, the “shrunken log2 fold change” value is -0.0882.
To RRIRKRPPRLPRPRPRPFIEPRP belongs -0.205; to RRIRSRPPRLPRPRPRPFPMPRP, -0.264; to RRIRERPPRLPRPRPRPEVRPRP, 0.138.
As for RRIRNRPPRLPRPRPRPGAFPRP, the figure is -0.0452.
To RRIRKRPPRLPRPRPRPDFMPRP belongs 0.028.
Consider RRIRNRPPRLPRPRPRPHEPPRP, for which the “shrunken log2 fold change” value is 0.247.
As for RRIRCRPPRLPRPRPRPPEIPRP, the figure is 0.0794; as for RRIRSRPPRLPRPRPRPEDEPRP, -0.0488.
Regarding RRIRSRPPRLPRPRPRPAMEPRP, the “shrunken log2 fold change” value was -0.0044.
Consider RRIRFRPPRLPRPRPRPIISPRP, for which the “shrunken log2 fold change” value is -0.332.
Turning to RRIRQRPPRLPRPRPRPLVDPRP, the “shrunken log2 fold change” value was found to be 0.187.
To RRIRHRPPRLPRPRPRPQYNPRP belongs -0.655; to RRIRLRPPRLPRPRPRPQITPRP, -0.294; to RRIRLRPPRLPRPRPRPWFPPRP, -0.157.
To RRIRQRPPRLPRPRPRPCVNPRP belongs 0.0293; to RRIRTRPPRLPRPRPRPCKDPRP, 0.027; to RRIRHRPPRLPRPRPRPWRMPRP, 0.0309.
As to RRIRYRPPRLPRPRPRPIEPPRP, the “shrunken log2 fold change” value was -0.111.
To RRIRRRPPRLPRPRPRPGAQPRP belongs 0.352; to RRIRRRPPRLPRPRPRPVLIPRP, 0.177; to RRIRERPPRLPRPRPRPRPFPRP, -0.0965.
To RRIRYRPPRLPRPRPRPEFYPRP belongs -0.316; to RRIRQRPPRLPRPRPRPYLAPRP, -0.21; to RRIRQRPPRLPRPRPRPTNTPRP, -0.216.
As for RRIRDRPPRLPRPRPRPKSDPRP, the figure is 0.295.
Consider RRIRIRPPRLPRPRPRPVAQPRP, for which the “shrunken log2 fold change” value is -0.103.
For the sequence RRIRTRPPRLPRPRPRPQNMPRP, the “shrunken log2 fold change” value was -0.654.
As for RRIRDRPPRLPRPRPRPYVIPRP, the figure is -0.116; as for RRIRRRPPRLPRPRPRPKEPPRP, 0.293; as for RRIRGRPPRLPRPRPRPINGPRP, 0.1.
As for RRIRPRPPRLPRPRPRPHEHPRP, the figure is 0.0125.
Take RRIRYRPPRLPRPRPRPYHTPRP: the “shrunken log2 fold change” value is -0.0274.
As for RRIRIRPPRLPRPRPRPNIFPRP, the figure is -0.319; as for RRIRQRPPRLPRPRPRPPQWPRP, 0.525.
To RRIRGRPPRLPRPRPRPRIWPRP belongs 0.836.
To RRIRCRPPRLPRPRPRPWQMPRP belongs -0.0748; to RRIRFRPPRLPRPRPRPMMDPRP, 0.0995.
In the case of RRIRHRPPRLPRPRPRPTQPPRP, the “shrunken log2 fold change” value came to 0.306.
To RRIRVRPPRLPRPRPRPNYIPRP belongs -0.631; to RRIRARPPRLPRPRPRPLKLPRP, -0.152; to RRIRKRPPRLPRPRPRPGDAPRP, 0.571.
Take RRIRNRPPRLPRPRPRPFRGPRP: the “shrunken log2 fold change” value worked out at 0.168.
To RRIRWRPPRLPRPRPRPCKIPRP belongs -0.114; to RRIRYRPPRLPRPRPRPKQYPRP, -0.409; to RRIRYRPPRLPRPRPRPAGIPRP, -0.359.
For RRIRFRPPRLPRPRPRPKTFPRP, the “shrunken log2 fold change” value is -0.18.
To RRIRKRPPRLPRPRPRPPTIPRP belongs 0.119.
To RRIRCRPPRLPRPRPRPFTEPRP belongs -0.28; to RRIRCRPPRLPRPRPRPFQRPRP, -0.418; to RRIRIRPPRLPRPRPRPGCHPRP, -0.602.
As for RRIRYRPPRLPRPRPRPARFPRP, the figure is 0.181.
Take RRIRIRPPRLPRPRPRPRVNPRP: the “shrunken log2 fold change” value is -0.603.
As for RRIRIRPPRLPRPRPRPQCTPRP, the figure is -0.769.
As for RRIRARPPRLPRPRPRPRVWPRP, the figure is 0.827; as for RRIRMRPPRLPRPRPRPIGGPRP, 0.0689.
To RRIRIRPPRLPRPRPRPQYSPRP belongs -0.581.
RRIRDRPPRLPRPRPRPNKGPRP: the “shrunken log2 fold change” value is -0.00129.
To RRIRERPPRLPRPRPRPYDMPRP belongs -0.222.
As for RRIRIRPPRLPRPRPRPCDAPRP, the figure is -0.27.
To RRIRSRPPRLPRPRPRPIQLPRP belongs -0.238.
RRIRWRPPRLPRPRPRPKFGPRP: the “shrunken log2 fold change” value came out at 0.206.
To RRIRYRPPRLPRPRPRPDIDPRP belongs -0.172; to RRIRIRPPRLPRPRPRPCGPPRP, -0.138.
Turning to RRIRERPPRLPRPRPRPAQAPRP, the “shrunken log2 fold change” value was 0.073.
As for RRIRWRPPRLPRPRPRPFNTPRP, the figure is -0.0751; as for RRIRDRPPRLPRPRPRPEKEPRP, 0.127; as for RRIRSRPPRLPRPRPRPHGGPRP, 0.103.
To RRIRWRPPRLPRPRPRPDCEPRP belongs 2.54; to RRIRWRPPRLPRPRPRPIGKPRP, -0.0958; to RRIRVRPPRLPRPRPRPGNHPRP, -0.245.
As for RRIRDRPPRLPRPRPRPQGEPRP, the figure is -0.0304; as for RRIRVRPPRLPRPRPRPGCWPRP, 0.594; as for RRIRMRPPRLPRPRPRPYMDPRP, 0.000784.
As to RRIRERPPRLPRPRPRPHWVPRP, the “shrunken log2 fold change” value turned out to be 0.172.
To RRIRARPPRLPRPRPRPCEAPRP belongs 0.762; to RRIRFRPPRLPRPRPRPEAYPRP, -0.0029.
Consider RRIRERPPRLPRPRPRPVNHPRP, for which the “shrunken log2 fold change” value is -0.229.
To RRIRKRPPRLPRPRPRPKWRPRP belongs 0.887; to RRIRVRPPRLPRPRPRPCLWPRP, 0.0452; to RRIRTRPPRLPRPRPRPDNDPRP, 0.0177.
For the sequence RRIRYRPPRLPRPRPRPAKEPRP, the “shrunken log2 fold change” value amounted to 0.0142.
For RRIRARPPRLPRPRPRPWHTPRP, the “shrunken log2 fold change” value is -0.219.
To RRIRDRPPRLPRPRPRPNKRPRP belongs -0.14; to RRIRNRPPRLPRPRPRPDHCPRP, 0.0463.
As for RRIRPRPPRLPRPRPRPVEHPRP, the figure is 0.00343; as for RRIRERPPRLPRPRPRPRAYPRP, -0.125.
To RRIRFRPPRLPRPRPRPMWNPRP belongs -0.363.
For RRIRYRPPRLPRPRPRPDNFPRP, the “shrunken log2 fold change” value is -1.09.
As for RRIRRRPPRLPRPRPRPTHWPRP, the figure is 0.988; as for RRIRPRPPRLPRPRPRPNRYPRP, -0.0334.
As for RRIRRRPPRLPRPRPRPDTVPRP, the figure is 0.0777; as for RRIRLRPPRLPRPRPRPTQAPRP, 0.507; as for RRIRNRPPRLPRPRPRPQIKPRP, -0.479.
As for RRIRRRPPRLPRPRPRPQHIPRP, the figure is -0.338; as for RRIRHRPPRLPRPRPRPMPEPRP, 0.283.
Take RRIRNRPPRLPRPRPRPKEEPRP: the “shrunken log2 fold change” value turned out to be 0.0169.
Turning to RRIRYRPPRLPRPRPRPVNWPRP, the “shrunken log2 fold change” value was -0.0321.
To RRIRGRPPRLPRPRPRPIPEPRP belongs 0.462.
To RRIRARPPRLPRPRPRPWGSPRP belongs 0.115.
As for RRIRTRPPRLPRPRPRPHFPPRP, the figure is -0.199; as for RRIRCRPPRLPRPRPRPAKGPRP, -0.179.
